{"source": "patent US20140128569A1", "about": "(PANASONIC, published 2014)", "biological_target": "T1, polypeptide consisting of the amino acid sequence represented by SEQ ID NO: 01, contained in troponin I … (human)", "T1 peptide": "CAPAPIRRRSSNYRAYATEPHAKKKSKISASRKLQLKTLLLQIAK", "experiment": "phage ELISA; average absorbance relative to example 2-1 (no heat); told of the conditions <=70 C and <=5 min, <=60 C and <=10 min, <=50 C and <=20 min, <=37 C and <=60 min", "procedure": "Pursuant to the step (a-8), the ELISA plate was prepared.\nA phage binding ratio was calculated from Table 10 on the basis of the following formula (I): […]"}
{"binder": "A2 antibody-displayed phage (scFv, 67, 68, 69 its parts; they must be translated; also called A2 antibody fragment; A2 scFv antibody fragment) scFv: DVVLTQSPLTLSVTIGQPASISCKSSQSLLDSDGKTYLNWLLQRPGQSPKRLIYLVSKLDSGVPDRFTGSGSGTDFTLKISRVEAEDLGVYYCWQGTHFPLTFGAGTKLEIKRGGGGSGGGGSGGGGSQLQLQQSGAELVRSGASVKLSCTASGFNIKDYYMNWVKQRPEQGLEWIGWIDPANGDTAYAPRFQVKATMTADKSSNTAYLQLSSLTSEDTAVYYCNADLPMDQWGQGTSVTVSS", "values": [{"measurement": "phage binding ratio", "value": 40, "unit": "%"}]}
